In article PMC6566460 one finds stoichiometry N data, which are given here for one substance.

The test concerns the target recombinant histone H2B (UniProt P06899). As to the kind of experiment: SEC + other: RP-HPLC; synthetic H2A.Z and recombinant H2B unfolded together (7 M Gdn·HCl, 20 mM mercaptoethanol, 20 mM Tris·HCl, pH 7.5; 2 h on ice), dialysed three times against refolding buffer (2.0 M NaCl, 2.0 mM mercaptoethanol, 10 mM Tris·HCl, pH 7.5) at 4 °C for 3 h; SEC of the reconstituted mixture, then RP-HPLC at 280 nm; ratio from peak areas and the number of tyrosines.

The term stoichiometry N denotes a count of units in the complex or per binding partner. Turning to “synthetic histone H2A.Z (from UniProt P0C0S5 1-128) (natural protein)”, the stoichiometry N amounted to 1.
